Earlier results in article PMC5074778.

Molecular target: IL-6 receptor (Homo sapiens) (UniProt P08887)
UniProt P08887, sequence (P08887 20-365): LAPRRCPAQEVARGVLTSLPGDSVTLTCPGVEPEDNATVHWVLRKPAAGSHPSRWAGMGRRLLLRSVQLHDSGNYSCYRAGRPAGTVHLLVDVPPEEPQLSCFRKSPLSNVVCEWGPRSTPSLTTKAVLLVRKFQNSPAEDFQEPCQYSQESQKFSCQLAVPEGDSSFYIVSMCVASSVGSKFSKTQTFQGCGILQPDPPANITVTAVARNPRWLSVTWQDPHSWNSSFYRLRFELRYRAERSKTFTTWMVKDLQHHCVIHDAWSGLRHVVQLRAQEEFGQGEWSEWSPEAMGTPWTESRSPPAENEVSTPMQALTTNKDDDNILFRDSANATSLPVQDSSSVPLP

With Tocilizumab as the substance, how does the Kd read?
Its Kd is 2.5 nM.
